# Test system: Escherichia coli TOP10
# Experiment: shrunken log2 fold change of peptide-encoding DNA abundance (4.5 h post-induction vs induction); higher = less antimicrobial activity (less host growth inhibition)
# Conditions: time post-induction: 4.5 h; library: site-saturation at positions 5, 18, 19, 20
# 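Also: peptides expressed intracellularly from a pBAD plasmid library in pooled LB shake-flask culture, induced with 0.3% L-arabinose, DNA abundance read by NGS, three biological replicates, DESeq2 with apeglm shrinkage.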
row,Sequence,shrunken log2 fold change
1,RRIRGRPPRLPRPRPRPSFHPRP,-0.17
2,RRIRCRPPRLPRPRPRPQTLPRP,-0.148
3,RRIRVRPPRLPRPRPRPKTTPRP,-0.0198
4,RRIRVRPPRLPRPRPRPVGRPRP,0.542
5,RRIRNRPPRLPRPRPRPKKFPRP,-0.0756
6,RRIRTRPPRLPRPRPRPMRSPRP,0.232
7,RRIRPRPPRLPRPRPRPIMQPRP,-0.391
8,RRIRARPPRLPRPRPRPHRVPRP,-0.13
9,RRIRLRPPRLPRPRPRPIFIPRP,0.606
10,RRIRDRPPRLPRPRPRPCMSPRP,-0.256
11,RRIRNRPPRLPRPRPRPWPPPRP,0.692
12,RRIRQRPPRLPRPRPRPKRCPRP,0.129
13,RRIRPRPPRLPRPRPRPQLCPRP,0.444
14,RRIRWRPPRLPRPRPRPSMWPRP,0.111
15,RRIRRRPPRLPRPRPRPCMGPRP,-0.1
16,RRIRNRPPRLPRPRPRPLERPRP,0.0661
17,RRIRTRPPRLPRPRPRPRMAPRP,0.288
18,RRIRRRPPRLPRPRPRPWNHPRP,-0.0953
19,RRIRMRPPRLPRPRPRPFAEPRP,0.625
20,RRIRKRPPRLPRPRPRPAQHPRP,0.65
21,RRIRARPPRLPRPRPRPITCPRP,-0.119
22,RRIRIRPPRLPRPRPRPKFRPRP,-0.0682

row,Sequence,shrunken log2 fold change
1,RRIRWRPPRLPRPRPRPCIPPRP,-0.0746
2,RRIRERPPRLPRPRPRPSFEPRP,-0.132
3,RRIRSRPPRLPRPRPRPDVWPRP,0.49
4,RRIRERPPRLPRPRPRPFLSPRP,-0.11
5,RRIRTRPPRLPRPRPRPRCVPRP,-0.0783
6,RRIRPRPPRLPRPRPRPPPKPRP,0.902
7,RRIRVRPPRLPRPRPRPFMYPRP,-0.642
8,RRIRERPPRLPRPRPRPENTPRP,-0.354
9,RRIRFRPPRLPRPRPRPEQIPRP,0.131
10,RRIRIRPPRLPRPRPRPDQHPRP,-0.202
11,RRIRYRPPRLPRPRPRPRANPRP,-0.109
12,RRIRDRPPRLPRPRPRPQMYPRP,-0.127
13,RRIRLRPPRLPRPRPRPQEAPRP,0.0514
14,RRIRLRPPRLPRPRPRPRENPRP,0.345
15,RRIRMRPPRLPRPRPRPRPSPRP,1.12
16,RRIRGRPPRLPRPRPRPCPPPRP,0.284
17,RRIRWRPPRLPRPRPRPHFSPRP,-0.205
18,RRIRSRPPRLPRPRPRPPCHPRP,-0.0302
19,RRIRNRPPRLPRPRPRPVIDPRP,-0.123
20,RRIRHRPPRLPRPRPRPYVTPRP,-0.182
21,RRIRSRPPRLPRPRPRPTPHPRP,0.308
22,RRIRYRPPRLPRPRPRPVREPRP,0.484

row,Sequence,shrunken log2 fold change
1,RRIRVRPPRLPRPRPRPHTCPRP,-0.345
2,RRIRERPPRLPRPRPRPFYGPRP,0.015
3,RRIRERPPRLPRPRPRPGANPRP,0.0574
4,RRIRARPPRLPRPRPRPTQPPRP,0.228
5,RRIRLRPPRLPRPRPRPRISPRP,0.0807
6,RRIRDRPPRLPRPRPRPQMCPRP,-0.183
7,RRIRFRPPRLPRPRPRPMVHPRP,-0.468
8,RRIRIRPPRLPRPRPRPTSCPRP,-0.0992
9,RRIRQRPPRLPRPRPRPMTKPRP,-0.0865
10,RRIRWRPPRLPRPRPRPPEIPRP,-0.0659
11,RRIRQRPPRLPRPRPRPEKNPRP,0.172
12,RRIRFRPPRLPRPRPRPEKMPRP,0.0434
13,RRIRVRPPRLPRPRPRPCDCPRP,0.00675
14,RRIRYRPPRLPRPRPRPMRLPRP,-0.039
15,RRIRLRPPRLPRPRPRPFQFPRP,-0.255
16,RRIRGRPPRLPRPRPRPQCEPRP,1.31
17,RRIRSRPPRLPRPRPRPYNFPRP,-0.36
18,RRIRRRPPRLPRPRPRPPCHPRP,0.761
19,RRIRCRPPRLPRPRPRPWVRPRP,-0.0386
20,RRIRERPPRLPRPRPRPMNKPRP,-0.765
21,RRIRPRPPRLPRPRPRPKEYPRP,-0.356
22,RRIRFRPPRLPRPRPRPESQPRP,-0.0723

row,Sequence,shrunken log2 fold change
1,RRIRRRPPRLPRPRPRPLQPPRP,0.873
2,RRIRSRPPRLPRPRPRPRTPPRP,0.502
3,RRIRCRPPRLPRPRPRPVRWPRP,0.952
4,RRIRCRPPRLPRPRPRPCENPRP,0.0291
5,RRIRIRPPRLPRPRPRPNMKPRP,-0.625
6,RRIRLRPPRLPRPRPRPNMFPRP,-0.225
7,RRIRSRPPRLPRPRPRPCRDPRP,-0.0619
8,RRIRKRPPRLPRPRPRPYECPRP,-0.341
9,RRIRLRPPRLPRPRPRPTTGPRP,0.0715
10,RRIRFRPPRLPRPRPRPQYTPRP,-0.616
11,RRIRGRPPRLPRPRPRPHSLPRP,-0.0762
12,RRIRTRPPRLPRPRPRPILTPRP,-0.139
13,RRIRSRPPRLPRPRPRPHEFPRP,-0.315
14,RRIRDRPPRLPRPRPRPCTKPRP,-0.0891
15,RRIRPRPPRLPRPRPRPPSAPRP,1.05
16,RRIRLRPPRLPRPRPRPQVSPRP,0.0548
17,RRIRDRPPRLPRPRPRPQFEPRP,0.0888
18,RRIRVRPPRLPRPRPRPHTQPRP,0.00176
19,RRIRNRPPRLPRPRPRPQAPPRP,0.31
20,RRIRTRPPRLPRPRPRPINSPRP,-0.875
21,RRIRQRPPRLPRPRPRPQQWPRP,0.201
22,RRIRLRPPRLPRPRPRPNDWPRP,-0.261

row,Sequence,shrunken log2 fold change
1,RRIRTRPPRLPRPRPRPVCYPRP,-0.531
2,RRIRERPPRLPRPRPRPCQKPRP,-0.0135
3,RRIRFRPPRLPRPRPRPWFIPRP,-0.175
4,RRIRYRPPRLPRPRPRPCDIPRP,-0.334
5,RRIRRRPPRLPRPRPRPDTEPRP,0.0209
6,RRIRIRPPRLPRPRPRPRLHPRP,-0.341
7,RRIRTRPPRLPRPRPRPARGPRP,0.407
8,RRIRNRPPRLPRPRPRPRTMPRP,0.135
9,RRIRDRPPRLPRPRPRPQKGPRP,0.00967
10,RRIRLRPPRLPRPRPRPWNNPRP,-0.225
11,RRIRSRPPRLPRPRPRPMNYPRP,-0.162
12,RRIRTRPPRLPRPRPRPMGHPRP,-0.118
13,RRIRMRPPRLPRPRPRPLEEPRP,3.36
14,RRIRWRPPRLPRPRPRPADCPRP,-0.00218
15,RRIRARPPRLPRPRPRPEWAPRP,1.06
16,RRIRDRPPRLPRPRPRPPTKPRP,0.00654
17,RRIRARPPRLPRPRPRPAFGPRP,0.6
18,RRIRCRPPRLPRPRPRPFTTPRP,-0.286
19,RRIRHRPPRLPRPRPRPNQNPRP,-0.285
20,RRIRIRPPRLPRPRPRPGMYPRP,0.123
21,RRIRARPPRLPRPRPRPMEAPRP,-0.047

# Source: the supplement of paper PMC9112550, “Optimization of the antimicrobial peptide Bac7 by deep mutational scanning” (BMC Biology, 2022)
